In patent US20220041718A1 (AUTOLUS, published 2022) one finds Kd data, which are given here for seven molecules.

For assay [1], the target named is T1, Recombinant purified TRBC1 (human, UniProt P01850 1-129, limits assumed).
T1 construct: Construct not described (may be a soluble TCR carrying TRBC1); also called TCR beta constant region 1; soluble recombinant biotinylated TRBC1
The assay is described as follows: SPR, IgG captured on anti-human Fc, TRBC1 as analyte. An excerpt:
(§1) A series S CM5 sensor chip was immobilised via amine coupling, with an anti-human Fc capture antibody to a density of 9000-10000 RU, using a Biacore T200 instrument. HBS-P+ buffer was used as running buffer in all experimental conditions. The test anti-TRBC2 antibodies (Table 1) were captured on flow cells 2, 3 and 4 to a density of 100-300 RU. Recombinant purified TRBC1 or TRBC2 at known concentrations were used as the ‘analyte’ and injected over the respective flow cells with 150s contact time and 300s dissociation at 30 μl/minute of flow rate. In each experiment, flow cell 1 was unmodified and used for reference subtraction. A ‘0 concentration’ sensorgram of buffer alone was used as a double reference subtraction to factor for drift. Data were fit to a 1:1 Langmuir binding model. Since a capture system was used, a local Rₘₐₓ parameter was used for the data fitting in each case.

Assay [2] deals with T2, Recombinant purified TRBC2 (human, UniProt A0A5B9 1-129, limits assumed).
T2 construct: Construct not described (may be a soluble TCR carrying TRBC2); also called TCR beta constant region 2; soluble recombinant biotinylated TRBC2
The assay can be described thus: SPR, IgG captured on anti-human Fc, TRBC2 as analyte.
Source text: as §1
On the technique in general: SPR reads the build-up and loss of mass on a sensor chip optically.

T1 sequence (P01850 1-129 limits assumed): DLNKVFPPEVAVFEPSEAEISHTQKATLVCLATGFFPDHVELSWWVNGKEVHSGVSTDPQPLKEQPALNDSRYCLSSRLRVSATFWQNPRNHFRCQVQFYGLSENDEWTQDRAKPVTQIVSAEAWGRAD
T2 sequence (A0A5B9 1-129 limits assumed): as the sequence (P01850 1-129 limits assumed) above, with N3K, K4N, E9K, F36Y counted along it

B1: hJovi-1 variant IgG, VH T28K, Y32F, A100N, N103Q; VL unmutated (antibody, V domains shown)
VH: QVQLVQSGAEVKKPGASVKVSCKASGYKFTGFVMHWVRQAPGQGLEWMGFINPYNDDIQSNERFRGRVTMTRDTSISTAYMELSRLRSDDTAVYYCARGNGYQFDGAYRFFDFWGQGTMVTVSS
VL: DIVMTQSPLSLPVTPGEPASISCRSSQRLVHSNGNTYLHWYLQKPGQSPRLLIYRVSNRFPGVPDRFSGSGSGTDFTLKISRVEAEDVGVYYCSQSTHVPYTFGQGTKLEIK
notes: IgG format
As to B1, the Kd (as a rule, the free concentration of one partner at which half of the binding sites on the other are occupied at equilibrium, for simple one-to-one binding) in assay [1] was found to be 1.77 µM; in assay [2], 484 nM.

B2: hJovi-1 variant IgG, VH T28K, Y32F, A100N, N103Y; VL unmutated (antibody, V domains shown)
VH: QVQLVQSGAEVKKPGASVKVSCKASGYKFTGFVMHWVRQAPGQGLEWMGFINPYNDDIQSNERFRGRVTMTRDTSISTAYMELSRLRSDDTAVYYCARGNGYYFDGAYRFFDFWGQGTMVTVSS
VL: DIVMTQSPLSLPVTPGEPASISCRSSQRLVHSNGNTYLHWYLQKPGQSPRLLIYRVSNRFPGVPDRFSGSGSGTDFTLKISRVEAEDVGVYYCSQSTHVPYTFGQGTKLEIK
notes: IgG format
Turning to B2, the figures for the Kd in assay [1] and in assay [2] were 1.58 µM and 339 nM, respectively.

B3: hJovi-1 variant IgG, VH T28K, Y32F, A100N, Y102F, N103M; VL N35R (antibody, V domains shown)
VH: QVQLVQSGAEVKKPGASVKVSCKASGYKFTGFVMHWVRQAPGQGLEWMGFINPYNDDIQSNERFRGRVTMTRDTSISTAYMELSRLRSDDTAVYYCARGNGFMFDGAYRFFDFWGQGTMVTVSS
VL: DIVMTQSPLSLPVTPGEPASISCRSSQRLVHSNGRTYLHWYLQKPGQSPRLLIYRVSNRFPGVPDRFSGSGSGTDFTLKISRVEAEDVGVYYCSQSTHVPYTFGQGTKLEIK
notes: IgG format
Consider B3, for which the figures for the dissociation constant Kd in assay [1] and in assay [2] were 7.91 µM and 968 nM, respectively.

B4: hJovi-1 variant IgG, VH T28K, Y32F, A100N, N103W; VL unmutated (antibody, V domains shown)
VH: QVQLVQSGAEVKKPGASVKVSCKASGYKFTGFVMHWVRQAPGQGLEWMGFINPYNDDIQSNERFRGRVTMTRDTSISTAYMELSRLRSDDTAVYYCARGNGYWFDGAYRFFDFWGQGTMVTVSS
VL: DIVMTQSPLSLPVTPGEPASISCRSSQRLVHSNGNTYLHWYLQKPGQSPRLLIYRVSNRFPGVPDRFSGSGSGTDFTLKISRVEAEDVGVYYCSQSTHVPYTFGQGTKLEIK
notes: IgG format
B4: the results for the Kd in assay [1] and in assay [2] were 1.65 µM and 425 nM, respectively.

B5: hJovi-1 variant IgG, VH T28K, Y32F, A100N, N103S; VL unmutated (antibody, V domains shown)
VH: QVQLVQSGAEVKKPGASVKVSCKASGYKFTGFVMHWVRQAPGQGLEWMGFINPYNDDIQSNERFRGRVTMTRDTSISTAYMELSRLRSDDTAVYYCARGNGYSFDGAYRFFDFWGQGTMVTVSS
VL: DIVMTQSPLSLPVTPGEPASISCRSSQRLVHSNGNTYLHWYLQKPGQSPRLLIYRVSNRFPGVPDRFSGSGSGTDFTLKISRVEAEDVGVYYCSQSTHVPYTFGQGTKLEIK
notes: IgG format
As for B5, the dissociation constant (Kd) in assay [1] was 3.54 µM; in assay [2], 983 nM.

B6: hJovi-1 variant IgG, VH T28K, Y32F, A100N, Y102F, N103M; VL N35K (antibody, V domains shown)
VH: QVQLVQSGAEVKKPGASVKVSCKASGYKFTGFVMHWVRQAPGQGLEWMGFINPYNDDIQSNERFRGRVTMTRDTSISTAYMELSRLRSDDTAVYYCARGNGFMFDGAYRFFDFWGQGTMVTVSS
VL: DIVMTQSPLSLPVTPGEPASISCRSSQRLVHSNGKTYLHWYLQKPGQSPRLLIYRVSNRFPGVPDRFSGSGSGTDFTLKISRVEAEDVGVYYCSQSTHVPYTFGQGTKLEIK
notes: IgG format
B6: the Kd in assay [1] amounted to 9.31 µM; in assay [2] it was 909 nM.

B7: hJovi-1 variant IgG, VH T28K, Y32F, A100N, Y102F, N103M; VL N35F (antibody, V domains shown)
VH: QVQLVQSGAEVKKPGASVKVSCKASGYKFTGFVMHWVRQAPGQGLEWMGFINPYNDDIQSNERFRGRVTMTRDTSISTAYMELSRLRSDDTAVYYCARGNGFMFDGAYRFFDFWGQGTMVTVSS
VL: DIVMTQSPLSLPVTPGEPASISCRSSQRLVHSNGFTYLHWYLQKPGQSPRLLIYRVSNRFPGVPDRFSGSGSGTDFTLKISRVEAEDVGVYYCSQSTHVPYTFGQGTKLEIK
notes: IgG format
In the case of B7, the results for the Kd in assay [1] and in assay [2] were 11.3 µM and 1320 nM, respectively.
